Measurements as given in US20140294898A1 (published 2014).
Positions of bridges follow the written chain, without caps; N, C: chain ends. Non-standard residues stand in square brackets, D forms with d. NMeNle = CCCC[C@H](NC)C(=O)O; NMeA = CN[C@@H](C)C(=O)O; Sar = CNCC(=O)O

B1: Compound No. 67 (peptide)
peptide: FANPHLGWSWFXRCG
HELM: PEPTIDE1{[O=C(C[*:3])[*:2]].F.[meA].N.P.H.L.[Sar].W.S.W.[meF].[CCCC[C@@H](C(=O)[*:2])N(C)[*:1]].R.C.G.[am]}$PEPTIDE1,PEPTIDE1,1:R3-15:R3$$$V2.0
SMILES: CCCC[C@H]1C(=O)N[C@@H](CCCNC(=N)N)C(=O)N[C@H](C(=O)NCC(N)=O)CSCC(=O)N[C@@H](Cc2ccccc2)C(=O)N(C)[C@@H](C)C(=O)N[C@@H](CC(N)=O)C(=O)N2CCC[C@H]2C(=O)N[C@@H](Cc2c[nH]cn2)C(=O)N[C@@H](CC(C)C)C(=O)N(C)CC(=O)N[C@@H](Cc2c[nH]c3ccccc23)C(=O)N[C@@H](CO)C(=O)N[C@@H](Cc2c[nH]c3ccccc23)C(=O)N(C)[C@@H](Cc2ccccc2)C(=O)N1C
notes: macrocyclic peptide, Formula I series; also called Compound 67
B2: Compound No. 19 (peptide)
peptide: FANPHLGWSWAXRCG
HELM: PEPTIDE1{[O=C(C[*:3])[*:2]].F.[meA].N.P.H.L.[Sar].W.S.W.[meA].[CCCC[C@@H](C(=O)[*:2])N(C)[*:1]].R.C.G.[am]}$PEPTIDE1,PEPTIDE1,1:R3-15:R3$$$V2.0
SMILES: CCCC[C@H]1C(=O)N[C@@H](CCCNC(=N)N)C(=O)N[C@H](C(=O)NCC(N)=O)CSCC(=O)N[C@@H](Cc2ccccc2)C(=O)N(C)[C@@H](C)C(=O)N[C@@H](CC(N)=O)C(=O)N2CCC[C@H]2C(=O)N[C@@H](Cc2c[nH]cn2)C(=O)N[C@@H](CC(C)C)C(=O)N(C)CC(=O)N[C@@H](Cc2c[nH]c3ccccc23)C(=O)N[C@@H](CO)C(=O)N[C@@H](Cc2c[nH]c3ccccc23)C(=O)N(C)[C@@H](C)C(=O)N1C
notes: macrocyclic peptide, Formula I series; also called Compound 19
B3: Compound No. 30 (peptide)
peptide: {CH2CO}-Y[NMeA]NPHL[Sar]WSW[NMeNle][NMeNle]RCG-NH2
modifications: thioether N-14
SMILES: CCCC[C@H]1C(=O)N(C)[C@@H](CCCC)C(=O)N[C@@H](CCCNC(=N)N)C(=O)N[C@H](C(=O)NCC(N)=O)CSCC(=O)N[C@@H](Cc2ccc(O)cc2)C(=O)N(C)[C@@H](C)C(=O)N[C@@H](CC(N)=O)C(=O)N2CCC[C@H]2C(=O)N[C@@H](Cc2c[nH]cn2)C(=O)N[C@@H](CC(C)C)C(=O)N(C)CC(=O)N[C@@H](Cc2c[nH]c3ccccc23)C(=O)N[C@@H](CO)C(=O)N[C@@H](Cc2c[nH]c3ccccc23)C(=O)N1C
notes: macrocyclic peptide, Formula I series; also called Compound 30
B4: Compound No. 55 (peptide)
peptide: {CH2CO}-F[NMeA]NPHLPWSW[NMeNle][NMeNle]RCG-NH2
modifications: thioether N-14
SMILES: CCCC[C@H]1C(=O)N(C)[C@@H](CCCC)C(=O)N[C@@H](CCCNC(=N)N)C(=O)N[C@H](C(=O)NCC(N)=O)CSCC(=O)N[C@@H](Cc2ccccc2)C(=O)N(C)[C@@H](C)C(=O)N[C@@H](CC(N)=O)C(=O)N2CCC[C@H]2C(=O)N[C@@H](Cc2c[nH]cn2)C(=O)N[C@@H](CC(C)C)C(=O)N2CCC[C@H]2C(=O)N[C@@H](Cc2c[nH]c3ccccc23)C(=O)N[C@@H](CO)C(=O)N[C@@H](Cc2c[nH]c3ccccc23)C(=O)N1C
notes: macrocyclic peptide, Formula I series; also called Compound 55
B5: Compound No. 61 (peptide)
peptide: {CH2CO}-F[NMeA]NPHL[Sar]WSM[NMeNle][NMeNle]RCG-NH2
modifications: thioether N-14
SMILES: CCCC[C@H]1C(=O)N(C)[C@@H](CCCC)C(=O)N[C@@H](CCCNC(=N)N)C(=O)N[C@H](C(=O)NCC(N)=O)CSCC(=O)N[C@@H](Cc2ccccc2)C(=O)N(C)[C@@H](C)C(=O)N[C@@H](CC(N)=O)C(=O)N2CCC[C@H]2C(=O)N[C@@H](Cc2c[nH]cn2)C(=O)N[C@@H](CC(C)C)C(=O)N(C)CC(=O)N[C@@H](Cc2c[nH]c3ccccc23)C(=O)N[C@@H](CO)C(=O)N[C@@H](CCSC)C(=O)N1C
notes: macrocyclic peptide, Formula I series; also called Compound 61
B6: Compound No. 51 (peptide)
peptide: {CH2CO}-F[NMeA]NPHD[Sar]WSW[NMeNle][NMeNle]RCG-NH2
modifications: thioether N-14
SMILES: CCCC[C@H]1C(=O)N(C)[C@@H](CCCC)C(=O)N[C@@H](CCCNC(=N)N)C(=O)N[C@H](C(=O)NCC(N)=O)CSCC(=O)N[C@@H](Cc2ccccc2)C(=O)N(C)[C@@H](C)C(=O)N[C@@H](CC(N)=O)C(=O)N2CCC[C@H]2C(=O)N[C@@H](Cc2c[nH]cn2)C(=O)N[C@@H](CC(=O)O)C(=O)N(C)CC(=O)N[C@@H](Cc2c[nH]c3ccccc23)C(=O)N[C@@H](CO)C(=O)N[C@@H](Cc2c[nH]c3ccccc23)C(=O)N1C
notes: macrocyclic peptide, Formula I series; also called Compound 51
B7: Compound No. 62 (peptide)
peptide: {CH2CO}-F[NMeA]NPHL[Sar]WSI[NMeNle][NMeNle]RCG-NH2
modifications: thioether N-14
SMILES: CCCC[C@H]1C(=O)N(C)[C@@H](CCCC)C(=O)N[C@@H](CCCNC(=N)N)C(=O)N[C@H](C(=O)NCC(N)=O)CSCC(=O)N[C@@H](Cc2ccccc2)C(=O)N(C)[C@@H](C)C(=O)N[C@@H](CC(N)=O)C(=O)N2CCC[C@H]2C(=O)N[C@@H](Cc2c[nH]cn2)C(=O)N[C@@H](CC(C)C)C(=O)N(C)CC(=O)N[C@@H](Cc2c[nH]c3ccccc23)C(=O)N[C@@H](CO)C(=O)N[C@@H]([C@@H](C)CC)C(=O)N1C
notes: macrocyclic peptide, Formula I series; also called Compound 62
B8: Compound No. 53 (peptide)
peptide: {CH2CO}-F[NMeA]NPHLHWSW[NMeNle][NMeNle]RCG-NH2
modifications: thioether N-14
SMILES: CCCC[C@H]1C(=O)N(C)[C@@H](CCCC)C(=O)N[C@@H](CCCNC(=N)N)C(=O)N[C@H](C(=O)NCC(N)=O)CSCC(=O)N[C@@H](Cc2ccccc2)C(=O)N(C)[C@@H](C)C(=O)N[C@@H](CC(N)=O)C(=O)N2CCC[C@H]2C(=O)N[C@@H](Cc2c[nH]cn2)C(=O)N[C@@H](CC(C)C)C(=O)N[C@@H](Cc2c[nH]cn2)C(=O)N[C@@H](Cc2c[nH]c3ccccc23)C(=O)N[C@@H](CO)C(=O)N[C@@H](Cc2c[nH]c3ccccc23)C(=O)N1C
notes: macrocyclic peptide, Formula I series; also called Compound 53
B9: Compound No. 54 (peptide)
peptide: {CH2CO}-F[NMeA]NPHLRWSW[NMeNle][NMeNle]RCG-NH2
modifications: thioether N-14
SMILES: CCCC[C@H]1C(=O)N(C)[C@@H](CCCC)C(=O)N[C@@H](CCCNC(=N)N)C(=O)N[C@H](C(=O)NCC(N)=O)CSCC(=O)N[C@@H](Cc2ccccc2)C(=O)N(C)[C@@H](C)C(=O)N[C@@H](CC(N)=O)C(=O)N2CCC[C@H]2C(=O)N[C@@H](Cc2c[nH]cn2)C(=O)N[C@@H](CC(C)C)C(=O)N[C@@H](CCCNC(=N)N)C(=O)N[C@@H](Cc2c[nH]c3ccccc23)C(=O)N[C@@H](CO)C(=O)N[C@@H](Cc2c[nH]c3ccccc23)C(=O)N1C
notes: macrocyclic peptide, Formula I series; also called Compound 54
B10: Compound No. 43 (peptide)
peptide: {CH2CO}-F[NMeA]GPHL[Sar]WSW[NMeNle][NMeNle]RCG-NH2
modifications: thioether N-14
SMILES: CCCC[C@H]1C(=O)N(C)[C@@H](CCCC)C(=O)N[C@@H](CCCNC(=N)N)C(=O)N[C@H](C(=O)NCC(N)=O)CSCC(=O)N[C@@H](Cc2ccccc2)C(=O)N(C)[C@@H](C)C(=O)NCC(=O)N2CCC[C@H]2C(=O)N[C@@H](Cc2c[nH]cn2)C(=O)N[C@@H](CC(C)C)C(=O)N(C)CC(=O)N[C@@H](Cc2c[nH]c3ccccc23)C(=O)N[C@@H](CO)C(=O)N[C@@H](Cc2c[nH]c3ccccc23)C(=O)N1C
notes: macrocyclic peptide, Formula I series; also called Compound 43

target: T1, human PD-L1 (human, UniProt Q9NZQ7 19-239, limits assumed); assay: cell binding assay, inhibition of Hu PD-L1/PD-1 binding
T1 construct: also called Hu PD-L1; hPD-L1
T1 sequence (Q9NZQ7 19-239 limits assumed): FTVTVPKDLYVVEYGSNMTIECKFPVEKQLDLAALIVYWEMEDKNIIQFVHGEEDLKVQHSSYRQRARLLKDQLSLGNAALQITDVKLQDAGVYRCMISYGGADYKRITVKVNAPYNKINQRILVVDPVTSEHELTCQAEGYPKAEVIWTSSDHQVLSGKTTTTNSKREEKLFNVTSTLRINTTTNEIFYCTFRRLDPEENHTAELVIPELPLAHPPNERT

In order of rising IC50:
1. B3  3 nM
2. B4  3 nM
3. B8  47 nM
4. B9  68 nM
5. B6  118 nM
6. B2  134 nM
7. B1  143 nM
8. B5  195 nM
9. B7  3410 nM
10. B10  5330 nM
